Assay results from the Human Domainome abundance scans (Beltran et al. 2025).

B1: Homeobox expressed in ES cells 1, residues 110 to 165; numbered along this chain, Q9UBX0 (parent)
chain: RPRTAFTQNQIEVLENVFRVNCYPGIDIREDLAQKLNLEEDRIQIWFQNRRAKLKR

Variants of: B1
Assay: abundance fitness (aPCA) (normalised: wild type 0, dead -1); higher = more abundant; growth selection in yeast, the domain comes from the species named
Settings: Homo sapiens

Abundance fitness of substitutions, site by site:
N9: P -0.292; S -0.004; M 0.381; L 0.045; V 0.017; F -0.243; I 0.118; R -0.042; A -0.169; G -0.103; Y 0.044; D 0.187; K -0.149; H 0.148; T -0.132; E 0.288; C -0.293
T4: M 0.634; V -0.003; C 0.74; F 0.052; P 0.125; A -0.164; Y -0.163; K 0.116; S -0.187; N -0.067; E 0.402; I -0.007; Q 0.635; R 0.171; D -0.192; W -0.501; G 0.129; H 0.069
R3: L -0.008; K -0.089; F 0.376; Q 0.27; D 0.126; H -0.433; M 0.15; W -0.674; S -0.181; N -0.145; Y 0.682; E 0.24; T -0.013; C -0.462; G 0.178; I 0.485; A 0.182
P2: W -0.046; R -0.031; E 0.734; F 0.425; T 0.126; Y 0.772; V 0.308; K 0.522; M 0.333; D 0.699; A 0.028; L 0.297; G 0.309; Q 0.386; C 0.048; H 0.545
Q8: G -0.416; W -0.598; A 0.158; V 0.122; E -0.019; H -0.373; Y -0.264; K -0.179; C -0.183; D -0.094; S 0.002; M -0.168; F -0.441; P -0.082; T -0.244
A5: L 0.249; F 0.324; K 0.412; P 0.295; W -0.21; V 0.296; D 0.653; Q 0.384; E 0.596; R 0.132; H 0.164; C 0.377; I 0.275; N 0.391; M 0.609; Y 0.429; S 0.424
I11: Q -0.114; K -0.237; C -0.628; G -0.891; V -0.145; D -0.072; A -0.344; P -0.598; Y -0.46; N 0.091; W -0.292; F -0.648; R -0.472; T -0.187; M -0.652; E 0.274
T7: C -0.666; M -0.288; L -0.417; R -0.587; W -0.845; A -0.068; E -0.352; K -0.245; N -0.084; H -0.312; P -0.664; D 0.161; V -0.681; F -0.701; G -0.401; S 0.112
V13: D -0.757; Y -0.757; L -0.543; F -0.378; T -0.141; A -0.272; I 0.467; M 0.618; S -0.224; C -0.149; P -0.596; K -0.458; H 0.023; Q -0.184; N -0.278
Q10: L -0.744; R -0.662; E -0.278; V -0.279; F -0.993; D -0.287; M 0.017; I -0.404; P -0.922; H -0.594; G -0.574
E15: G -0.686; D -0.621; S -0.854; R -0.503; A -0.832; Y -0.528; T -0.741; L -0.725; H -0.463
